From patent publication US20150064204A1 (Amgen, published 2015)

T1: human GITR (Glucocorticoid-induced TNFR-related gene, TNFRSF18) (human, UniProt Q9Y5U5 26-241)
T1 construct: also called AITR; huGITR
T1 sequence: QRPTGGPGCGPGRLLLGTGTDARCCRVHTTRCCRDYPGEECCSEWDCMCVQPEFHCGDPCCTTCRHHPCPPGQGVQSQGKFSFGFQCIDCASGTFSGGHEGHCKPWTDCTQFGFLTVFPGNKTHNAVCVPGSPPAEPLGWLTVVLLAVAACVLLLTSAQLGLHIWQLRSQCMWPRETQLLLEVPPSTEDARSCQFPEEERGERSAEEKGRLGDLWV


Assays:
[1] = target: T1, human GITR (Glucocorticoid-induced …); assay: flow cytometry (MFI), antibody titration on anti-CD3-activated primary human T cells (CD25+CD4+)
Protocol: Cells were collected and washed and then incubated at 4 C with titrations of the anti-human GITR antibodies or a human IgG1 isotype control antibody. After washing, cells were stained at 4 C with fluorochrome conjugated anti-human CD4 and anti-human CD25 antibodies to identify activated CD4+ effector T cells and with fluorochrome-conjugated anti-huIgG to detect bound anti-human GITR antibodies. The mean fluorescence intensity (MFI) of the anti-human GITR antibodies bound to CD25+CD4+ cells was determined by flow cytometry. The EC50s of the binding curves were calculated using GraphPad Prism® software.

[2] = target: T1, human GITR (Glucocorticoid-induced …); assay: cell-based or functional assay

Row | EC50 [1] [µg/mL] | IFNg Secretion (Fold over CD3) [2] [fold over CD3] | IFNg Secretion EC50 [2] [µg/mL] | Binder
1 | 0.027 | 2.2 | 0.0002 | 7A10 (antibody, human IgG1, kappa, V domains shown, Fully human parental antibody; also called Ab18; SS-10944) VH: QVQLVESGGGVVQPGRSLRLSCAASGFTFSSYGMHWVRQAPGKGLEWMAVIWYVGSNKYYADSVKGRFTISRDNSKNTLYLQMNSLSAEDTAVYYCARGGELGRDYYSGMDVWGQGTTVTVSS VL: DIQMTQSPSSLSASVGDRVTITCRASQGIRNDLGWYQQKPGKAPKRLIYAASSLQSGVPSRFSGSGSGTEFTLTISSLQPEDFATYYCQQHNSYPWTFGQGTKVEIKR
2 | 0.053 | 2.8 | 0.0004 | 33F6 (antibody, human IgG1, kappa, V domains shown, Fully human parental antibody; also called Ab3; SS-12414) VH: QVQLVESGGGVVQPGRSLRLSCAASGFTFSNYGMHWVRQAPGKGLEWVAVIWYVGSNKYYADSVKGRFTISRDNSKNTLYLQMNSLRAEDTAVYYCARGGELRLYYYYGMDVWGQGTTVTVSS VL: DIQMTQSPSSLSASVGDRVTITCRASQGIRNDLGWYQQKPGKAPKRLIYAASSLQSGVPSRFSGSGSGTEFTLTVSSLQPEDFATYYCLQLNSYPWTFGQGTKVEIKR
3 | 0.033 | 1.9 | 0.0008 | 41G5 (antibody, human IgG1, kappa, V domains shown, Fully human parental antibody; also called Ab7; SS-12428) VH: QVQLVESGGGVVQPGRSLRLSCAASGFTFSSYGMHWVRQAPGKGLEWVAVIWYPGSNKYYADSVKGRFTISRDNSKNTLYLQMNSLRAEDTAVYYCARGGELGRYYYYGMDVWGQGTTVTVSS VL: DIQMTQSPSSLSASVGDRVTVTCRASQGIRNDLGWYQQKPGKAPKRLIYAASSLQSGVPSRFSGSGSGTEFTLTISSLQPEDFATYYCLQHNNYPWTFGQGTKVDIKR
4 | 0.033 | 1.9 | 0.0005 | 35B10 (antibody, human IgG1, kappa, V domains shown, Fully human parental antibody; also called Ab5; SS-12416) VH: QVQLVESGGGVVQPGRSLRLSCAASGFTFSSYGMHWVRQAPGKGLEWVAVIWYAGSNKYYADSVKGRFTISRDNSKNTLYLQMNSLRAEDTAVYYCARGGELSFYYYYGMDVWGQGTTVTVSS VL: DIQMTQSPSSLSASVGDRVTITCRASQGIRNDLGWYQQKPGKAPKRLIYAASTLQSGVPSRFSGSGSGTEFTLTISSLQPEDFATYYCLQHNNYPWTFGQGTKVEIKR

Second part, the binder before the results:

Row | Binder | EC50 [1] [µg/mL] | IFNg Secretion (Fold over CD3) [2] [fold over CD3] | IFNg Secretion EC50 [2] [µg/mL]
5 | 34G4 (antibody, human IgG1, kappa, V domains shown, Fully human parental antibody; also called Ab4; SS-12415) VH: QVQLVESGGGVVQPGRSLRLSCAASGFTFSSYGMHWVRQAPGKGLEWVAVIWYEGSNKYYADSVKGRFTISRDNSKNTLYLQMNSLRAEDTAVYYCARGGQLGYYYYYGMDVWGQGTTVTVSS VL: DIQMTQSPSSLSASVGDRVTITCRASQGIRNDLGWYQQKPGKAPKRLIYDASSLQSGVPSRFSGSGSGTDFTLTISSLQPEDFATYYCLQLNSYPWTFGQGTKVEIKR | 0.038 | 1.9 | 0.0002
6 | 1D7 (antibody, human IgG1, kappa, V domains shown, Fully human parental antibody; also called Ab1; SS-10942) VH: QVQLVESGGGVVQPGRSLRLSCAASGFTFSSYGMHWVRQAPGKGLEWVTVIWYEGSNKYYADSVKGRFTISRDNSKNTLYLQMNSLRAEDTAVYYCARGGQLGKYYYYGMDVWGQGTTVTVSS VL: DIQMTQSPSSLSASVGDRVTITCRASQGIRNDLGWYQQKPGKAPKRLIYDASSLQSGVPSRFSGSGSGTEFTLTISSLQPEDFATYYCLQHNNYPWTFGQGTKVEIKR | 0.024 | 2.2 | 0.0008
7 | 33C9 (antibody, human IgG1, kappa, V domains shown, Fully human parental antibody; also called Ab2; SS-12413) VH: QVQVVESGGGVVQPGRSLRLSCAASGFTFSSYGMHWVRQAPGKGLEWVSVIWYEGSNKYYADSVKGRFTISRDNSKNTLYLQMNSLRAEDTAVYYCARGGLLGYYYYYGMDVWGQGTTVTVSS VL: DIQMTQSPSSLSASVGDRVTITCRASQGIRNDLGWYQQKPGKAPKRLIYDASSLQSGVPSRFSGSGSGTEFTLTISSLQPEDFATYYCLQHHSYPWTFGQGTKVEIKR | 0.035 | 2.7 | 0.001
